Measured values published in publication PMC4264199, “Peptide Array on Cellulose Support—A Screening Tool to Identify Peptides with Dipeptidyl-Peptidase IV Inhibitory Activity within the Sequence of α-Lactalbumin” (International Journal of Molecular Sciences, 2014).

What was measured:
[1] = target: T1, dipeptidyl-peptidase IV (DPP-IV) (Homo sapiens, UniProt P27487); assay: DPP-IV inhibition assay on SPOT-synthesized peptides (cleaved from cellulose membrane); assay type: biochemical; details: peptides cleaved from cellulose membrane, concentration not known (semi-quantitative); averages of four determinations from two experiments
T1 construct: purchased Creative BioMart (Shirley, NY, USA); host or cells: HEK293 human cells
T1 sequence (P27487 whole entry): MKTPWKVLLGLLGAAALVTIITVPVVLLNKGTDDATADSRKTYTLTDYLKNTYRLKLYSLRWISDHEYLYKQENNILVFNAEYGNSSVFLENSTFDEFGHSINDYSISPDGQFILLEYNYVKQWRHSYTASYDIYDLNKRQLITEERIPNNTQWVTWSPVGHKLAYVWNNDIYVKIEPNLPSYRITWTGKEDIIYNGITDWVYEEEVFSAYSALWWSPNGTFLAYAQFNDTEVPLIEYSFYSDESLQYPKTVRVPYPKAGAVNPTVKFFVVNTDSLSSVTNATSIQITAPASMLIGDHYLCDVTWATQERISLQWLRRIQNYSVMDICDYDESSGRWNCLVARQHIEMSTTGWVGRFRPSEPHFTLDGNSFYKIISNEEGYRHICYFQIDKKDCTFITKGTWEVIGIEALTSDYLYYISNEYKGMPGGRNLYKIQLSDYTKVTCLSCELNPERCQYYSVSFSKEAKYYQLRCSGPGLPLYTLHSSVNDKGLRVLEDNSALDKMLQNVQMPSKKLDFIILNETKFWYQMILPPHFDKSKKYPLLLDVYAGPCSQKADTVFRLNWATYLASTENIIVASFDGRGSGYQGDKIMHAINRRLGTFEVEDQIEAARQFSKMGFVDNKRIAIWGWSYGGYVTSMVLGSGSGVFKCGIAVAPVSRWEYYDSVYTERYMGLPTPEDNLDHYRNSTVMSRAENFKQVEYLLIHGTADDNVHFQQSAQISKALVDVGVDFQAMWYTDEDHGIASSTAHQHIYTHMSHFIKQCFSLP
In short: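 Human DPP-IV expressed in HEK293 cells, with Gly–Pro–p-NA substrate (0.29 mM stock), was tested against α-lactalbumin decapeptides ammonia-cleaved from SPOT cellulose membranes and eluted in 50% acetonitrile/Tris, pH 8.0. After a 10-min preincubation, reaction ran 30 min at 37 °C, was stopped at pH 4.0, and p-nitroaniline absorbance was read at 405 nm.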

[2] = target: T1, dipeptidyl-peptidase IV (DPP-IV); assay: Probing of membrane-bound peptide arrays: binding of DPP-IV to deca-peptides (immunoassay, chemiluminescence); details: peptide array on cellulose membrane, DPP-IV 10 μg/mL
Experimental: The interaction between the DPP-IV enzyme and deca-peptides spanning the entire α-lactalbumin sequence (Table S1) was first determined by immunoassay and visualized using an enhanced chemiluminescence substrate (Figure 1).
The membranes were first blocked with protein-free (Tris-buffered saline (TBS)) blocking buffer containing 0.05% Tween-20 for 4 h at room temperature and then incubated with DPP-IV (10 μg/mL in blocking buffer) overnight at 4 °C. The membranes were washed with TBS (50 mM Tris, 136 mM NaCl, 0.05% Tween-20, pH 8.0) four times for 15 min each, after which they were incubated with the polyclonal goat DPP-IV antibody (0.2 µg/mL) for 8 h at 4 °C. The membranes were once again washed with TBS four times for 15 min each prior to being incubated with anti-goat secondary antibody conjugated to horseradish peroxidase (0.1 µg/mL) overnight at 4 °C. Finally, the membranes were washed four more times for 15 min each; then a thin layer of chemiluminescence detection mixture, prepared according to the manufacturer’s instructions, was applied for 1 min and the luminescence generated from the spots on the membranes with bound DPP-IV was measured using a ChemiDoc™ MP system (Bio-Rad Laboratories (Canada) Ltd., Mississauga, ON, Canada).

[3] = system: DPP-IV; details: Table S2; cited from earlier work

| Sequence | Percent inhibition of DPP-IV activity, SPOT-synthesized deca-peptides [1] | Binding of DPP-IV to cellulose-bound deca-peptide (in words) [2] | Reported Relationship to DPP-IV [3] |
| --- | --- | --- | --- |
| HSQGTFTSDY [K8, reference compound] | 15% | found to bind to DPP-IV | Inhibitor |
| IVTQTMKGLD [K5, reference compound] | 16% | found to bind to DPP-IV | Weak inhibitor |
| LKPTPEGDLEIL | – | – | inhibitors |
